Consider one protein from publication PMC13276377, “Structural Mechanism of Receptor-Triggered MyD88 Oligomeric Assembly in Innate Immune Signaling” (Nature Communications, 2026).

The data set deals with the molecule itself. As to the kind of experiment: high-speed AFM; 10–200 μM TIR_(MyD88) adsorbed on mica for 10 min; 20 mM HEPES pH 7.0, 50 mM NaCl, 10 mM DTT; room temperature.

B1: TIR domain of MyD88 (TIR_(MyD88); residues 153–296) (domain or fragment, human, UniProt Q99836-1 153-296, looked up)
chain: PLGHMPERFDAFICYCPSDIQFVQEMIRQLEQTNYRLKLCVSDRDVLPGTCVWSIASELIEKRCRRMVVVVSDDYLQSKECDFQTKFALSLSPGAHQKRLIPIKYKAMKKEFPSILRFITVCDYTNPCTKSWFWTRLAKALSLP
notes: human MyD88, TIR domain, amino acids 153–296; Self-assembles into antiparallel double-stranded filaments, double-layered rings and cylindrical fibers; also called WT TIR_(MyD88); Toll/interleukin-1 receptor domain of MyD88
Turning to B1, the stoichiometry N (in general, the number of molecules, sites or subunits per partner or assembly) amounted to 58.
